Results: patent US20170204172A1 (IMMUNDIAGNOSTIK, published 2017)

T1: human bone sialoprotein (BSP) in plasma (human, UniProt P21815 17-317, phosphorylated serine at positions 31, 67, 74, 75, 94, 100, 149, 280; sulphated tyrosine; multiple complex glycosylation (as described for human BSP))
T1 construct: Native BSP as present in human plasma; also called human BSP; hBSP
T1 sequence (looked up): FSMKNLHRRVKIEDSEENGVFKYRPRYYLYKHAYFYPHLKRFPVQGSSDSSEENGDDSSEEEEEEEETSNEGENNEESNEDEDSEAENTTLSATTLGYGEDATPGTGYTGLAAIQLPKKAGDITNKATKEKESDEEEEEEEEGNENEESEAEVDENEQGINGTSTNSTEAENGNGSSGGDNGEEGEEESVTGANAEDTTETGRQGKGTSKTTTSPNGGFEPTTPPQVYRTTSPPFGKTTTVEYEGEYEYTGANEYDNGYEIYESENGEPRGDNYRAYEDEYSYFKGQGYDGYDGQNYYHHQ

B1: anti-BSP_IDK2 human mAb (clone AF165R4.2-E2) (antibody, V domains shown)
VH: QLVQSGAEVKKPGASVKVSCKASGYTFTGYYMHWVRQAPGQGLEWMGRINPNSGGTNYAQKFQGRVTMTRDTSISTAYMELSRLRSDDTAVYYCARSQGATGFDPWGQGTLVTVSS
VL: QLVLTQSPSASGTPGQRVTISCSGSSSNIGSSYVYWYQQLPGAAPKLLIYRNSQRPPGVPDRFSSSKSGTSASLAISGLRSEDEADYYCATWDGSLSGWVFGGGTKLTVLG
notes: The entries include a signal peptide that is marked only by underlining in a drawing; Lambda light chain; also called fully human anti-hBSP antibody
B2: chimeric version of the rat mAb anti-BSP_IDK1 (antibody, V domains shown)
VH: QVQLQESGAELVRPGSSVKISCKASGYTFTDFYMHWVKQGPEQGLVWIGRINPANGNTIYAEKFKTKATLTADKSSNTAYMQLSSLTSEDTATYFCSSAYWGQGTLVTVSS
VL: DILLTQTPPTSSATIGQSVSISCRSSQSLLDNDGNTYTLYWYLQRPTQSPQLLIYLVSKLRSGVPNRFSGSGSGTDFTLKISGVEAEDLGVYYCVQGTHDPWTFGGGTKLELKR
notes: The entries include a signal peptide that is marked only by underlining in a drawing; Kappa light chain; also called chimeric version of a rat mAB - IDK 1; human chimeric version of a monoclonal rat antibody
B3: humanized antibody anti-BSP_IDK3 (clone AF177.3) (antibody, V domains shown)
VH: QVQLQQSGAEVVKPGASVKVSCKASGYTFTDFYMHWVKQAPEQGLEWMGIINPANGNTIYAEKFQGRVTMTADKSTNTVYMELSSLTSEDTATYYCSSAYWGQGTLVTVSS
VL: DIVMTQTPPSSSVTIGQPASISCKSSQSLLDNDGNTYLYWYLQKPGQSPQLLIYLVSKRRSGVPDRFSGSGSGTDFTLKISGVEAEDVGVYYCVQGTHDPWTFGGGTKVEIKR
notes: Kappa light chain; also called Humanized mAB of IDK 1

Key:
[1] = molecular target: T1, human bone sialoprotein (BSP) in plasma; assay: screening of a phagemid single chain antibody library with peptide antigen and human BSP in plasma
Excerpt: We screened differentially a synthetic human antibody library for an antibody reacting with synthetic peptide epitopes derived and common to rat or human BSP which we assumed being accessible in plasma. Moreover, we screened a proprietary synthetic human antibody library (mAB-Factory GmbH, Braunschweig, DE), prepared in accordance with DE 4122599 C2 and WO 93/01288 (PCT/EP92/01524), for phagemid-expressed single chain antibodies binding to BSP peptide epitopes with a soluble peptide antigen as indicated and with human BSP in plasma. A respective full human antibody (AF165R4.2-E2) specific for human BSP in plasma was obtained and reconstructed.

[2] = molecular target: T1, human bone sialoprotein (BSP) in plasma; assay: titration and competition experiments

Binder | binding result [1] | binding result [2]
B1 | binds | 
B2 |  | binds
B3 |  | binds
